This passage reports Kd results from article PMC4971505 (2016).

A word on the Kd: it is a measure of binding affinity in units of concentration.

Assay [1] addresses M3 muscarinic acetylcholine receptor (Homo sapiens, UniProt P20309). Put plainly: 3H-NMS radioligand pseudocompetition binding (allosteric model).
Assay [2] deals with T1, M1 muscarinic acetylcholine receptor (Homo sapiens, UniProt P11229).
T1 chain: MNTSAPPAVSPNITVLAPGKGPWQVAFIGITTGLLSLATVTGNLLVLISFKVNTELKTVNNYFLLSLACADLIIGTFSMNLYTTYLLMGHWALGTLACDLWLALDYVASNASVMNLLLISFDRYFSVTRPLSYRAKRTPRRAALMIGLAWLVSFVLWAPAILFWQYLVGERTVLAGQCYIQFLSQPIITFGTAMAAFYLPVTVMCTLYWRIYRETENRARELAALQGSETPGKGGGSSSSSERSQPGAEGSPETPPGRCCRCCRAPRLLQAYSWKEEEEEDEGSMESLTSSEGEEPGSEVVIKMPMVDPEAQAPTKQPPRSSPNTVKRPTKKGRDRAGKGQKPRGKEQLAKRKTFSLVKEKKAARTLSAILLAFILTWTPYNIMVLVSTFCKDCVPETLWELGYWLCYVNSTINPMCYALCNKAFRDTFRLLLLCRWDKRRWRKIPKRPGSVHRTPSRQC
The description is as above.

Chain of M3 muscarinic acetylcholine receptor (P20309 whole entry): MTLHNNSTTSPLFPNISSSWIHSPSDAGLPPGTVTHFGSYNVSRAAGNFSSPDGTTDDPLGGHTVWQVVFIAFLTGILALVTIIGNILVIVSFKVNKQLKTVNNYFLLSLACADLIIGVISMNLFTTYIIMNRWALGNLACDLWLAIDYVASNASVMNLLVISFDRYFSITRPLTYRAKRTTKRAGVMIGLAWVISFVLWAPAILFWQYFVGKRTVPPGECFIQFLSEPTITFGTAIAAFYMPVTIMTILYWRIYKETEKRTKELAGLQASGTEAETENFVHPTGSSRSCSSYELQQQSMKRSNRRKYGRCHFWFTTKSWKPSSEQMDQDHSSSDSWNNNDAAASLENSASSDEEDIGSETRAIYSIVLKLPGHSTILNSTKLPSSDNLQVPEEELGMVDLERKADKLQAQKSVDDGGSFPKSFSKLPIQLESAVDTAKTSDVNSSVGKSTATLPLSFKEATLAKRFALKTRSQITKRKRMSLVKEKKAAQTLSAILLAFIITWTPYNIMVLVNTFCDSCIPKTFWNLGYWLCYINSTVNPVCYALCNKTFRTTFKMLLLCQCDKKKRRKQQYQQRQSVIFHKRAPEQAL

B1: SLURP-2 (protein)
chain: IWCHQCTGFGGCSHGSRCLRDSTHCVTTATRVLSNTEDLPLVTKMCHIGCPDIPSLGLGPYVSIACCQTSLCNHD
As to B1, the Kd in assay [1] was found to be 144 nM; in assay [2], 231 nM.
